The nanobody polyreactivity screen of Harvey et al. (2022)

Experiment: yeast display, Sf9 membrane polyspecificity reagent, FACS + sequencing; frameworks hold sequencing errors
Method in brief: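 Sorting gates, low and high (top ~1%), were placed on anti-HA fluorescence to track expression and on streptavidin fluorescence to track reagent binding. A clone's polyreactivity label is taken from the gate it came out of. The reagent was 10% biotinylated, detergent-solubilized Sf9 membrane, applied for 1 hour at 4 °C to galactose-induced yeast display cells.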

QVQLVESGGGLLQAGGSLRLSCAASGRTFKYYAMGWYRQAPGKERELVAAISHSGGSTYYADSVKGRFTISRDNAKNTVYLQMNSLKPEDTAVYYCAADHGDGNYPYYYWGQGTQVTVSS
polyreactivity (PSR sort gate): high polyreactivity

QVQLVESGGGLVQAGGSLRLSCAASGSTFRIYAMGWYRQAPGKERELVAGITRRGGSTFYADSVKGRFTISRDNAKNTVYLQMNSLKPEDTAVYYCAARFRGGMDYWGQGTQVTVSS
polyreactivity (PSR sort gate): high polyreactivity

QVHLVESGVGLVQAGGSLRLSCASSGSTFYAYAMGWYRQAPGKERELVAAIDSGGSTYYADSVKGRFTISRDNAKNTVYLPMNILKPEDSAVYYCAVRHRYTRAYWGRDYWGQGTKVTVSS
polyreactivity (PSR sort gate): low polyreactivity

QVQLVESGGGLVQAGGSLRLSCAASGRTFSKYAMGWDRPAPGKERELVAGISRSGGSTYYADSVKGRFTISRDNAKNTVYLQMNSLKPEDTAVYYCAKRSVGGTGYYWGQGTQVTVSS
polyreactivity (PSR sort gate): high polyreactivity

QVQLVESGGGLVQAGGSLRLSCAASGGTLRGYAMGWYRQAPGKERELVASITYTSGSTYYADSVKGRFTISRDNAKNTVYLQINSLKPEDTAVYYCAAVARTVPSYSYNYWGQGTKVTVSS
polyreactivity (PSR sort gate): high polyreactivity

QVQLVESRGGLVQAGGSLRLSCASSGSTFVPNAMGWYRQAPGNERELDAAITFSGGTTYYADSVKGRFTISRDNAKNTVYFQMNSLKPEDTAVYDCAADYFSNLWWSGHAWRYYYWGQGTQVTVSS
polyreactivity (PSR sort gate): low polyreactivity

QVQLVESGGGLVQAGGSLRLICAASGRTFRLYAMGWYRQAPGKERELVAAITRGGRTNYADSVKGRFTISRDNAKNTVYLQMNSLKPEDTAVYYCAARYVERHTDYYYWGQGTQVTVSS
polyreactivity (PSR sort gate): low polyreactivity

QVQLVESGGGLVQAGGSLRLSCAASGRIFGGNVMGWNRQATWKERELVAFITRGTRTNYADSVKGRFTISRDNAKNTVYLQMNSLKPEDNAVFYCAADSRNSRQHTSYNSLNYWGQGTQVTVSS
polyreactivity (PSR sort gate): high polyreactivity

QVQLVESGGGLVQAGGSLRLSCAASGLIFPIYAMGWYRQAPGKERELVAVITWSGGSTYYADSVKGRFTISRDNAKNTVYLQMNSLKPEDTAVYYCAVEWAYPYWYTYYLEDYWGQGTQVTVSS
polyreactivity (PSR sort gate): low polyreactivity

QVQLVESGGGLVQAGGSLRLSCAASGRIFAVYVMGWYRQAPGKERELVAAISQSGGRTYYADSVKGRFTISRDNAKNTVYLQMNSLITEDTAVYYCNTVTSRATNFSGLGYWGQGTQVTVSS
polyreactivity (PSR sort gate): high polyreactivity

QVQLVESGGGLVQAGGSLRLSCAASGFTFGKNAMGWYRQAPGKERELVAAIDTGDRTNYADSVKGRFTISRDNAKNTVYLQMNSLKPEDTAVYYCATDVVFSSYDYWGQGTQVTVSS
polyreactivity (PSR sort gate): low polyreactivity

QVQLVESGGGLVQAGGSLRLSCAASGSIFGKYAMGWYRQAPGKERELVAAISWSGGSTYYADSVKGRFTISRDNAKNTVYLQMNSLKPEDTAVYYCAATFRGTFRRIWTDTRAYDYWGQGTQVTVSS
polyreactivity (PSR sort gate): high polyreactivity

QVQLVESGGGLVQAGGSLRLSCAASGFTFRIYAMGWYRQAPGKERELVAAITWSGGSTSYADSVKGRFTISRDNAKNTVYLQMNSLKPEDTAVYYCAAETKYSGAYPYDYWGQGTQVTVSS
polyreactivity (PSR sort gate): high polyreactivity

QVQRVESGGGLVQAGGSLRLSCAPSGRTFGYYAMGWYRQAPGKERELVAAISRGGRTNYADSVKGRFTISRDNAKNTVYLQMNSLQPEDTAVYYCAKSGTIPRYTASYSLLDYWGQGTQVTVSS
polyreactivity (PSR sort gate): low polyreactivity

QVQLQESGGGLVQAGGSLRLSCAASGSILFSTLMGWSRQAPGKERELVATITTGTFTNYAGSVKGRFTISRDNAENTVYLQMNSLRPEDTAVYYSADYANHKAGFYYWGQGTQVTVSS
polyreactivity (PSR sort gate): high polyreactivity

QLQLVESGGGLVQAGGSLRLSCAASGNIFNYNAMGWYRQAPGKERELVAAISFSGGSTYYADSVKGRFTISRDNAQNTVYLQMNSLKPEDTAVYYCAKAERNYFEDWGQGTQVTVSS
polyreactivity (PSR sort gate): high polyreactivity

QVQLVESGGGLVQAGGSLLLSCAASGSIFYYYAMGWYRQAPGKERELVAAISKSGGSTYADSVKGRFTISRDNAKNTVYLQMNSLKPEDTAVYYCAKEFKYWGYPYDYWGQGTQVTVSS
polyreactivity (PSR sort gate): low polyreactivity

QVQLVESGGGLVQAGGSLRLSCAASGRTIYQYAKGWYRPAPGKERELVAAISRGGSTNYADSLKGRFTISRDNAKNTVLLQLNSLKPEDTAVYDCASWYKCLSLKRLYERDYWGHGTQVTVSS
polyreactivity (PSR sort gate): high polyreactivity

QVQHVESGGGLVQAGGSLRLSCAACGRTFTPYAMGWYLQEPGKDREFVAAIDTSGGSTYADSVNGRFTISRDNAKYTVYLQKNSLKPEDTAVYYCGTRGFYSWDYWYLWEYDYWGQGTQVTVSS
polyreactivity (PSR sort gate): low polyreactivity

QVHHVDSGGGLVQAGGTLRLSIPASGRTFQYYTMGWYRQPPGKERELVAAIRRGGSTYYADSVKGRFSISRDNAKNTVYLQLNILKPEDTAVYYCADLYAYSLTARGMEYWGQGTQVTVSS
polyreactivity (PSR sort gate): high polyreactivity

QVQLVESGGGLVQAGGSLRLSCAASGRIFSVYVMGWYRPAPGKERELVAAISGRDGTTYYADSVKGRFTISRDNAKNTVYLQMNSLKPEDTAVYYCAAEDIDFTPMDYWGQGTQVTVSS
polyreactivity (PSR sort gate): high polyreactivity

QVQLVESGGGLVQAGGSLRLSCAASGRIFSINAMGWYRQAPGKERELVAAITSRGTSTYYADSVKGRFTISRDNAKNTVYLQMNSMKPEDTAVYYCAKKYVGGPWPRYFWGQGTQVTVSS
polyreactivity (PSR sort gate): high polyreactivity

QVQLVESGGGLVQAGGSLRLSCAASGSIFGENAMGWYRQAPGKERELVAAITWSGASTYYADSVKGRFTISRDNAKNTVYLQMNSLKPEETAVYYCNADRYVRYSTFDYWGQGTQVTVSS
polyreactivity (PSR sort gate): high polyreactivity

QVQLVESGGGLVQAGGSLRLSCAASGSIFQYNAMGWYRQAPGKRELVAAINRSGGSTYYADSVKGRFTISRDYAKNTVYLQMNSLKPEDTAVYYCAAVRYDRARGSPYPDRVGVYSWGQGTQVTVSS
polyreactivity (PSR sort gate): high polyreactivity

QVQHVESGGGLVQAGGSLRLSCAASGIIFIGNAMGWYRQAPGKEGALVAANTDSGGRTYYADSVKGRFTISRDNAKNSVYLQMNCLKPEDTAVYYCARDRGKNTPYDYWGQGTLVTVSS
polyreactivity (PSR sort gate): low polyreactivity

QVQLVESGGGLDQAGGSLSLSCAASGIIFAGNAMGWYRQPPGKERELVAAISSNGGSTYYADSVKGRFTISRDNAKNTVYLQMNSLKPEDTAVYYCAADRVYWGRVQGYYWGQGTQVTVSS
polyreactivity (PSR sort gate): low polyreactivity

QVQLVESGGGLVQAGGSLRLSCAASGRIFGPYTMGWYIQAPGKEREFVAAITRRGGTTYYADSVKGRFTISRDNAKNTVYLQMNSLKAEDTGVYYCDAVGQKRSLGYSWGQGTQVTVSS
polyreactivity (PSR sort gate): low polyreactivity

QVQLVESRGGLVQAGGSLRLSCAPSGIIFVRYAMGWYRQAPGKETELVAAISSSGGSTYYADSVKGRFTISRDNAKKTVYLQMNSLKPEDTAVYYCNARHRQWARGYWGQGTQVTVSS
polyreactivity (PSR sort gate): high polyreactivity

QVHLVESGGGLVQAGGSLRLSCAASGSIFLWYTMGWYRQAPGKERELVAAISRTGGSTYYADSVKGRFTISRDNAKNTVYLQMNSLKPEDTAVYYCAASLYSITRARYDYWGQGTQVTVSS
polyreactivity (PSR sort gate): high polyreactivity

QVQLVESGGGLVQAGGSLRLSCAASGSTFGGYAMGWYRPAPGKERELVAAISGSGVRTYYADSVKGRFTISRDNAKNTVYLQMNSLKPEDTAVYYCAKRVRYPGDRYYYWGQGTQVTVSS
polyreactivity (PSR sort gate): high polyreactivity

QVQLLESGGGLVQAGGSLRLSCAASGIIVSYAMGWYRQAPGKERELVAAIRYSGDSTYYADSVKGRFTISRDNAKNTVYLQMNSLKPEDTAVYYCAATKGWSRYEYWGQGTQVTVSS
polyreactivity (PSR sort gate): low polyreactivity

QVQLVESGGGLVQAGGSLRLSCDASGSIFIPYAMGWYRQAPGKERELVAAISGSGTSTNYADSVKGRFTISRDNAKNTVYLQMNSLKPEDTAVYYCAARLPYGYLRSKFYYWGQGTQVTVSS
polyreactivity (PSR sort gate): high polyreactivity

QVQLVESGGGLVQAGGSLRLSCAASGSTFGKNAMGWYRPAPGKERELVAAITSSGGRTYYADSVKGRFTISRDNAKNTVYLQMNSLKPEDTAVYYCNAVTRRRSLGPWPVEYDYWGQGTQVTVSS
polyreactivity (PSR sort gate): high polyreactivity

QVQLVESGGGLVQAGGSLRLSCAASGRIFYYNAMGWYRQAPGKERELVAAITYSGTSTYYADSVKGRFTISRDNAKNTVYLQMNSLKPEDSAVYYCAVDSTDQAPPTYDYWGQGTQVTVSS
polyreactivity (PSR sort gate): low polyreactivity

QVQLVESGGGLVQAGGSLRLSCAASGIIFGVYAMGWYRQAPGKERELVAAIDGNGSSTYYADSVKGRFISSRDNAKTTVYLQMNSLKPEDTAVYYCAADLVWVSTSYYYWGQGTQVTVSS
polyreactivity (PSR sort gate): low polyreactivity

QVQLVESGGGLVQAGGSLRLSCAASGFTLIADDMGGYRQAPGKERELVAGISSGDSTDYADSVKGRFTISRDNAKNTVYVQMNSLTPEDTAVYYCAATWYGDYSRYDFYYWGQGTQVTVSS
polyreactivity (PSR sort gate): low polyreactivity

QVQLVESGGGLVQAGGSLRLSCAASGSIFGWNAMGWYRQAPGKERELVASITWSGGRTYYADSVKGRFTISRDNAKNTVYLQMNSLKPEDTAVYYCAARGYTVWDDYWGQGTQVTVSS
polyreactivity (PSR sort gate): high polyreactivity

QFQLVESGGGLVQAGGSLRLSCAASGSTINPNTMVWSREAPGKERELVAVISSGGSTYYADSVKGRFTISRDNATNTVYLQMNSLKPEDSAVYYCAADRGTVSYLYCPRAVYYWGQGTQVTVSS
polyreactivity (PSR sort gate): low polyreactivity

QVQLVESGGGLVQAGGSLRLRCAASGSTFTYYAMGWYRQAPGKERELVAVSNKSGGRTNYADSVKGRFTISRDNAKNTVYLQMNSLKPEDTAVYYCNKVTRREGSYGYPSRYDYWGQGTQVTVSS
polyreactivity (PSR sort gate): high polyreactivity

QVQLVESGGGLVQAGGSLRLSCAASGRISVRIYAMGWYRQAPGKERELVAIISRSGGSTYYADSVKGRFTISRDNAKNTVYLQMNSLKPEDTEVYYCNARWSFSYTVWVDSYWCLDDYWGQGTQVTVSS
polyreactivity (PSR sort gate): high polyreactivity

QVQLVESGGRLVQAGGSRRLSCAASGSTFYTNDMGWYIQAPGKERELVAAISSGGDYADSVKGRFTISRDNAKNTVYLQMNSLKPEDTAVYYCAKADTKWGQGTQVTVSS
polyreactivity (PSR sort gate): low polyreactivity

QVQLVESGGGLVQAGGSLRLSCAASGRIFTINAMGWYRQAPGKERELVAAISWSGVRTYYADSVKGRFTISRDNAKNTVYLQMNSLKPEDTAVYYCAKRRQYQRSYNYWGQGTQVTVSS
polyreactivity (PSR sort gate): low polyreactivity

QVQLVESGGGLVQAGGSLRLSCAASGRIFGVYAMGWYRQAPGKERELVAAITSSGGRTYYADSVKGRFTISRDNAKNTVYLQMNSLKPEDTAVYYCAALGWSRRGKFNYWGQGTQVTVSS
polyreactivity (PSR sort gate): high polyreactivity
